Data on twelve molecules can be found in US20150017171A1 (CHINA SYNTHETIC RUBBER, published 2015).

Assay [1] addresses T1, recombinant human PLVAP51-442 protein (extracellular domain, His tag removed by thrombin) (human, UniProt Q9BX97 51-442).
T1 construct: also called recombinant PLVAP protein; recombinant PLVAP
T1 sequence: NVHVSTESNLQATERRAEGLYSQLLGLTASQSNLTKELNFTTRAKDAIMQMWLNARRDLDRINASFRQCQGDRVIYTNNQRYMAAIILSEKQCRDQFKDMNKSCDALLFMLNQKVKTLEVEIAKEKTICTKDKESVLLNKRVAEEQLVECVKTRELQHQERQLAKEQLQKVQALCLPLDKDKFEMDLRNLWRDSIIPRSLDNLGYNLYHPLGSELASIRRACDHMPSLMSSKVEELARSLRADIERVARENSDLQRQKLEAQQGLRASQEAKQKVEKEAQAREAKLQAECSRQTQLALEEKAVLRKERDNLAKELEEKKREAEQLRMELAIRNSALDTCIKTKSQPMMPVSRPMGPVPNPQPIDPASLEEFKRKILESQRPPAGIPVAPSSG
Briefly: competition ELISA on coated recombinant PLVAP; competitor biotinylated murine KFCC-GY5. As to the method:
(§1) The binding of KFCC-GY4 and KFCC-GY5 human antibody variants to recombinant PLVAP was assessed in a competition ELISA. Either a dilution series of variant or control antibody from 30 μg/m to 0.014 μg/m (final concentration) was premixed with a constant concentration of biotinylated murine KFCC-GY4 (0.3 μg/ml, final concentration) or a dilution series of variant or control antibody from 10 μg/m to 0.004 μg/ml (final concentration) was premixed with a constant concentration of biotinylated murine KFCC-GY5 (0.1 μg/ml, final concentration) before incubating for 1 hour at room temperature on a Nunc Immuno MaxiSorp 96 well flat bottom microtitre plate (Fisher Catalogue No. DIS-971-030J) precoated with 1 μg/m recombinant “protein P” diluted in PBS. The binding of the biotinylated mAb was determined by detection with streptavidin-HRP and TMB substrate. After stopping the reaction with 3M HCl, absorbance was measured at 450 nm on a Dynex Technologies MRX TC II plate reader and the binding curves of the test antibodies compared against the mouse reference standard.
Similarly, the four lead variants of IgG4-GY5 and murine KFCC-GY5 antibodies have very similar binding profiles (FIG. 49). All of the lead variants shown are within two-fold of the original murine monoclonal antibody.
(An ELISA detects its analyte on a solid surface through an enzyme-linked reagent.)

Assay [2] has as its target T1, recombinant human PLVAP51-442 protein …. Briefly: Biacore T-100.
Assay [3] shares this target. Briefly: competition ELISA on coated recombinant PLVAP; competitor biotinylated murine KFCC-GY5 at 0.1 µg/ml. As to the method: (§2) The binding of chimeric KFCC-GY4 and KFCC-GY5 antibodies to recombinant PLVAP protein was assessed in a competition ELISA. Either a dilution series of chimeric or control antibody from 30 μg/ml to 0.014 μg/m (final concentration) was premixed with a constant concentration of biotinylated murine KFCC-GY4 (0.3 μg/ml, final concentration) or a dilution series of chimeric or control antibody from 10 μg/ml to 0.004 μg/m (final concentration) was premixed with a constant concentration of biotinylated murine KFCC-GY5 (0.1 μg/ml, final concentration) before incubating for 1 hour at room temperature on a Nunc Immuno MaxiSorp 96 well flat bottom microtitre plate (Fisher Catalogue No. DIS-971-030J) precoated with 1 μg/ml recombinant PLVAP protein diluted in PBS. The binding of the biotinylated mAb was determined by detection with streptavidin-HRP and TMB substrate.
(§3) Therefore, the correct variable region sequences for the parent murine monoclonal antibodies were identified and cloned.

Assay [4] shares this target. In words: ANTQ300 quartz crystal microbalance.
The target of assay [5] is T2, His-tagged human PLVAP51-292 (human, UniProt Q9BX97 51-292).
T2 construct: also called N-terminal portion of the extracellular domain; not shown: His tag and vector residues of pET-15b
T2 sequence: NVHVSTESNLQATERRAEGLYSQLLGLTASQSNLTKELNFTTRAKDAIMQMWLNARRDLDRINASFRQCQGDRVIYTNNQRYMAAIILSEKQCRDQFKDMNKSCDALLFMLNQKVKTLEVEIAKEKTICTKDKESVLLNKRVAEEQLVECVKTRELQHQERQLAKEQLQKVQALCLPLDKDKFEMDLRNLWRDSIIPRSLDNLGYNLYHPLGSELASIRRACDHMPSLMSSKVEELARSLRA
In words: immunoblot of total protein extract of E. coli expressing the His-tagged protein. An excerpt:
(§4) Molecular weight protein standards are resolved in Lane M.
(A western blot detects proteins with antibodies after separation by electrophoresis.)

For assay [6], the target named is T3, His-tagged human CEACAM6 (human, UniProt P40199 35-320, limits assumed).
T3 construct: also called human CEACAM6 protein unrelated to PLVAP (lane 4); not shown: His tag
T3 sequence (looked up): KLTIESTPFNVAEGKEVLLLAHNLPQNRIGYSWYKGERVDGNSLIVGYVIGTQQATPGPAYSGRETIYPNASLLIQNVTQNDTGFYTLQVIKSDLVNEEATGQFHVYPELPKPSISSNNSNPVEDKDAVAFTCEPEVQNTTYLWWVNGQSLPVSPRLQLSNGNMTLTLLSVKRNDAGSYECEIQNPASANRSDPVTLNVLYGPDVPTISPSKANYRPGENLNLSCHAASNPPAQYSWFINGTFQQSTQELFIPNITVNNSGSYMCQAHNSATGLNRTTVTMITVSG
The description is as above.
From the text: as §4

Assay [7] concerns the target T1, recombinant human PLVAP51-442 protein …. Briefly: competition ELISA on coated recombinant PLVAP; competitor biotinylated murine KFCC-GY4. As to the method: as §1
The five lead variants of IgG4-GY4 and murine KFCC-GY4 antibodies have very similar binding profiles (FIG. 48). All of the lead variants shown are within two-fold of the original murine monoclonal antibody.

Assay [8] has the same target. In words: competition ELISA on coated recombinant PLVAP; competitor biotinylated murine KFCC-GY4 at 0.3 µg/ml. As to the method:
as §2, §3

Numbering of substitutions follows the chain as printed.

B1: humanized KFCC-GY5 antibody CSR02-VH4/VK2 (antibody, human IgG4, V domains shown)
VH: QVQLVQSGSELKKPGASVKVSCKASGYTFTSNYINWVRQAPGQGLEWIGNIYPSDGFTNYNQKFKDRVTITVDKSTSTAYMELSSLRSEDTAVYYCTRNFDVWGQGTTVTVSS
VL: DVVMTQSPLSLPVTLGQPASISCRSSQSLVHSNGNTYLQWYLQKPGQSPQLLIYTVSNRFSGVPDRFSGSGSGTDFTLKISRVEAEDVGVYFCSQSTHVPFTFGQGTKLEIKR
notes: also called VH4/VK2 (GY5 variant); CSR02-VH4NK2
For orientation: IC50 means the concentration needed to halve the response being measured. Turning to B1, in assay [1], the IC50 turned out to be 0.56 µg/mL and the “IC50 (ratio compared to GY5 mAb)” value amounted to 1.47.

B2: humanized KFCC-GY5 antibody CSR02-VH5/VK3 (antibody, human IgG4, V domains shown)
VH: B1 VH with I48M
VL: B1 VL with T74P, F92Y
notes: also called VH5/VK3 (GY5 variant); CSR02-VH5NK3
B2: in assay [1], the IC50 was 0.41 µg/mL and the “IC50 (ratio compared to GY5 mAb)” value was 1.08.

B3: humanized KFCC-GY5 antibody CSR02-VH4/VK3 (antibody, human IgG4, V domains shown)
VH: B1 VH
VL: B1 VL with T74P, F92Y
notes: also called VH4/VK3 (GY5 variant); VH4/VK3 IgG4
Consider B3, for which, in assay [1], the half-inhibitory concentration (IC50) worked out at 0.43 µg/mL and the “IC50 (ratio compared to GY5 mAb)” value came out at 1.13.

B4: humanized KFCC-GY5 antibody CSR02-VH5/VK2 (antibody, human IgG4, V domains shown)
VH: B1 VH with I48M
VL: B1 VL
notes: also called VH5/VK2 (GY5 variant); CSR02-VH5NK2
On to B4, for which, in assay [1], the IC50 stood at 0.6 µg/mL and the “IC50 (ratio compared to GY5 mAb)” value came to 1.58.

B5: chimeric KFCC-GY5 antibody (CSR02) (antibody, human IgG4, V domains shown)
VH: QVQLQQPGAELVRPGASVKLSCKASGYTFTSNYINWVKQRPGQGLEWIGNIYPSDGFTNYNQKFKDRATLTVDKSSSTAYMQLSSPTSEDSAVYYCTRNFDVWGAGTTVTVSS
VL: DVVMTQTPLSLPVSLGDQASISCRSSQSLVHSNGNTYLQWYLQKPGQSPKLLIYTVSNRFSGVPDRFSGSGSGPDFTLKISRVEAEDLGVYFCSQSTHVPFTFGSGTKLEIK
notes: also called Chimeric GY5; chimeric IgG4-GY5
One may read the Kd as a measure of binding affinity in units of concentration. A word on the koff: it is a measure of how fast the partners let go of each other. Usually kon stands for the second-order rate constant of association. For B5, in assay [2], the Kd is 0.978 nM, the off-rate (koff) was 3.01e-05 s⁻¹ and the kon amounted to 30700 M⁻¹ s⁻¹. The IC50 in assay [3] was 0.4 µg/mL.

B6: KFCC-GY4 monoclonal antibody (murine, hybridoma ATCC PTA-9963) (antibody, mouse IgG1, V domains shown)
VH: EVQLQQSGAEFVRSGASVKLSCTASGFNIKDYYIHWVKQRPEQGLEWIGWIDPENGDIEYAPKFQGKATMTADTSSNTAYLQFSSLTSEDTAVYYCLYQEGSWGQGTTLTVSS
VL: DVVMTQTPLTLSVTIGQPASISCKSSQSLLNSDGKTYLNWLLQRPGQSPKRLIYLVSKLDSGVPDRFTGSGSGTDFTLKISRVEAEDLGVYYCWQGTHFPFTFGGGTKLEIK
notes: also called GY4 mAB; KFCC-GY4 mAb
Consider B6, for which, in assay [4], the dissociation constant Kd is 60 nM. In assay [2], the dissociation constant Kd stood at 464 nM, the off-rate (koff) worked out at 0.00701 s⁻¹ and the on-rate (kon) worked out at 15100 M⁻¹ s⁻¹. Further, in assay [5], the binding result is recorded as “no binding”. The binding result in assay [6] is listed as “no binding”. Further, in assay [7], the IC50 was determined as 1.82 µg/mL and the “IC50 (ratio compared to GY4 mAb)” value worked out at 1. Besides, the IC50 in assay [8] came to 0.98 µg/mL.

B7: chimeric KFCC-GY4 antibody (CSR01) (antibody, human IgG4, V domains shown)
VH: B6 VH
VL: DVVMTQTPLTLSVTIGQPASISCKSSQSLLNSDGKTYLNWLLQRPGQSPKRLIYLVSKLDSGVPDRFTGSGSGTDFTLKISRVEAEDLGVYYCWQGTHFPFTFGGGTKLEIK
notes: also called Chimeric GY4; chimeric IgG4-GY4
With B7, in assay [2], the Kd amounted to 406 nM, the off-rate (koff) was 0.00212 s⁻¹ and the kon is 5210 M⁻¹ s⁻¹. Further, the concentration for half-maximal inhibition (IC50) in assay [8] amounted to 0.8 µg/mL.

B8: humanized KFCC-GY4 antibody CSR01-VH5/VK2 (antibody, human IgG4, V domains shown)
VH: EVQLVQSGAEVKKPGASVKVSCTASGFNIKDYYIHWVRQAPGQGLEWIGWIDPENGDIEYAPKFQGRATITADTSTDTAYMELSSLRSEDTAVYYCLYQEGSWGQGTTVTVSS
VL: DVVMTQSPLSLPVTLGQPASISCKSSQSLLNSDGKTYLNWLQQRPGQSPRRLIYLVSKLDSGVPDRFTGSGSGTDFTLKISRVEAEDVGVYYCWQGTHFPFTFGGGTKVEIKR
notes: also called VH5/VK2 (GY4 variant); CSR01-VH5NK2
With B8, in assay [7], the IC50 was 1.91 µg/mL and the “IC50 (ratio compared to GY4 mAb)” value was found to be 1.05.

B9: humanized KFCC-GY4 antibody CSR01-VH4/VK2 (antibody, human IgG4, V domains shown)
VH: B8 VH with L83F
VL: B8 VL
notes: also called VH4/VK2 (GY4 variant); CSR01-VH4NK2
Take B9: in assay [7], the 50% inhibitory concentration (IC50) is 2.53 µg/mL and the “IC50 (ratio compared to GY4 mAb)” value is 1.39.

B10: humanized KFCC-GY4 antibody CSR01-VH5/VK3 (antibody, human IgG4, V domains shown)
VH: B8 VH
VL: B8 VL with T68S
notes: also called VH5/VK3 (GY4 variant); VH5/VK3 IgG4
Take B10: in assay [7], the half-maximal inhibitory concentration (IC50) was found to be 2.82 µg/mL and the “IC50 (ratio compared to GY4 mAb)” value was 1.55.

B11: humanized KFCC-GY4 antibody CSR01-VH5/VK1 (antibody, human IgG4, V domains shown)
VH: B8 VH
VL: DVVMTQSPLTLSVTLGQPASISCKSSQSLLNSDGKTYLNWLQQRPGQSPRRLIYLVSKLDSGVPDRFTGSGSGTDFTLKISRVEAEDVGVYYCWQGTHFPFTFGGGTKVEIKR
notes: also called VH5/VK1 (GY4 variant); CSR01-VH5NK1
Consider B11, for which, in assay [7], the half-maximal inhibitory concentration (IC50) came out at 2.18 µg/mL and the “IC50 (ratio compared to GY4 mAb)” value was found to be 1.2.

B12: humanized KFCC-GY4 antibody CSR01-VH4/VK3 (antibody, human IgG4, V domains shown)
VH: B8 VH with L83F
VL: B8 VL with T68S
notes: also called VH4/VK3 (GY4 variant); CSR01-VH4NK3
As to B12, in assay [7], the concentration for half-maximal inhibition (IC50) was found to be 2.94 µg/mL and the “IC50 (ratio compared to GY4 mAb)” value was 1.61.
